From patent publication US20260265403A1 (TJ BIOPHARMA SHANGHAI, published 2026)
Numbering of substitutions follows the chain as printed. Numbers in names are those of the source.

T1: human CD24 on cells (human, UniProt P25063 27-59)
T1 chain (looked up): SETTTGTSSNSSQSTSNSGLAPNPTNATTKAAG

T2: Human CD24 (human, UniProt P25063 27-59, limits assumed)
T2 chain (looked up): T1 chain (looked up)

B1: 74-H4C6 (4451), IgG1, Kappa (antibody, V domains shown)
VH: EVQLQQSGPELVKPGASVKISCKASGYDFTGYHMNWVKQSPEKSLEWIGEINPITSDKTFNQKFKSKATLTVDRSSSTAYMYLKSLTSEDSAVYYCARRDYGTSLDYWGQGTTLTVSS
VL: DVQITQSPSYLAASPGETITIYCRASKSISKYLAWYQEKPEKTNRLLIYAGSTLHSGIPSRFRGSGSGKDFTLTVSGLEPEDFAMYYCQQHNEYPITFGAGTKLELK
B2: 59-G9D7, IgG1, Kappa (antibody, V domains shown)
VH: QVQLQQPGADLVKPGASVKLSCKASGYTVTTYWMHWVRQRPGRGLEWIGRIDPNSGETKYSEKFKNKATLTVDRPSSTAYMQLSSLTFEDSAVYFCAIYYYLNNFLFDYWGQGTTLTVSS
VL: ENVLTQSPAIMSASPGEKVTMTCRASSSVSSSYLHWYQKKSGASPKLWIYSTSNLASGVPARFSGSGSGTSYSLTISSVEAEDAATYYCQQYSGYPLTFGAGTKLELK
B3: 62-F7E9, IgG1, Kappa (antibody, V domains shown)
VH: QVQLQQPGAELVKPGASVKLSCKASGYTSTSYWLHWVKQRPGRGLEWIGRIDPNSGETKFNEKFKSQATLTVDKPSSTAYMQLNSLTSEDSAVYYCALYYYGSILFDYWGQGTTLTVSS
VL: B2 VL with A25T, S28I, V29I, S32G, Y33F, K39Q, Y95H
B4: 80-F10A6, IgG4, Kappa (antibody, V domains shown)
VH: EVQLQQSGPVLVNPGASVKISCKASGYSFTGYYMNWVKQSPEKSLEWIGEVNPITGDTTYSQNFKAKTTLTVDRSSSTAYMQLKSLTSEDSAVYYCTRRDYGTSLDYWGQGTTLTVSS
VL: DVQITQSPSYLAASPGETITIHCRASKSISRYLAWYQEKPGKINTLLIYAGSTLHLGIPSRFSGSGSGTDFTLTISSLELEDFAMYYCQQHNEYPITFGAGTKLELK
B5: 69-D5G10, IgG4, Kappa (antibody, V domains shown)
VH: EVKLEESGGGLVQPGGSMKLSCVVSGLTFSNHWMNWVRQSPEKGLEWVAQIQLKSDNYATRFAESVKGRFTISRDDSKSDVYLQMNNLRTEDTGIYYCTTGTDYWGQGTTLTVSS
VL: not shown
B6: 69-D5G10, IgG1, Kappa (antibody, V domains shown)
VH: B5 VH
VL: not shown
B7: 66-D1B10, IgG1, Kappa (antibody, V domains shown)
VH: EVRLEESGGGFVQPGGSMKLSCVASGLTFPNHWMNWVRQSPERGLAWVAQIQLKSDNYATRYVESVKGRFTISRDDSESTVYLQMNNLRAEDTGIYYCTTGTDYWGQGTTLTVSS
VL: not shown
B8: 76-F8C6, IgG1, Kappa (antibody, V domains shown)
VH: B7 VH with R3K, F11L, L27F, P30T, H32S, A46D, E78K, S79N, T80S, G106S
VL: not shown
B9: 65-F3C7, IgG4, Kappa (antibody, V domains shown)
VH: B7 VH with P41L, E78K, A90P
VL: not shown
B10: 65-F3C7, IgG1, Kappa (antibody, V domains shown)
VH: B7 VH with P41L, E78K, A90P
VL: not shown
B11: 45-H1E4, IgG1, Kappa (antibody, V domains shown)
VH: QIQLVQSGPELKKPGETVKISCKASGYTFTTYGMSWMKQAPGKGLKWMGWINTYSGVPAYADDFKGRFAFSLDTSASTAYLQINNLKNEDTATYFCARSGYPWSPHSYSTDYWGQGISVTVSS
VL: DVLLTQTPLSLPVSLGDQASISCKSSQSIVHSNGNTYLEWYLQKPGQSPKRLIYKVSNRFSGVPDRFSGSGSGTDFTLKISRVEAEDLGVYYCFQGSHVPWTFGGGTKLEIK
B12: 63-C5A5, IgG4, Kappa (antibody, V domains shown)
VH: EVNLEESGGGLVQPGGSMEFSCVASGLTFSDHWMNWVRQSPEKGLEWVAQIQLKSDNYAIRYVESVKGRFSISRDDSKSSVYLQMNNLRAEDSGIYYCTTGTDYWGQGTTLTVSS
VL: not shown
B13: 63-C5A5, IgG1, Kappa (antibody, V domains shown)
VH: B12 VH
VL: not shown
B14: Antibody No 1, lead clone of 4451H (HC N35G; LC K27A, T97I) (antibody, V domains shown)
VH: QVQLVQSGAEVKKPGASVKVSCKASGYDFTGYHMGWVRQAPGQGLEWMGEINPITSDKTFNQKFKSRVTMTRDTSISTAYMELSRLRSDDTAVYYCARRDYGTSLDYWGQGTTVTVSS
VL: DIQLTQSPSFLSASVGDRVTITCRASASISKYLAWYQQKPGKAPKLLIYAGSTLHSGIPSRFRGSGSGTEFTLTISSLQPEDFATYYCQQHNEYPIIFGQGTKLEIK
B15: Antibody No 11, lead clone of 4451H (HC T59Y; LC K27A) (antibody, V domains shown)
VH: B14 VH with G35N, T59Y
VL: B14 VL with I97T
B16: Antibody No 10, lead clone of 4451H (HC T59Y; LC L33G, T97I) (antibody, V domains shown)
VH: B14 VH with G35N, T59Y
VL: B14 VL with A27K, L33G
B17: Antibody No 5, lead clone of 4451H (HC N35G; LC S30K) (antibody, V domains shown)
VH: B14 VH
VL: B14 VL with A27K, S30K, I97T
B18: Antibody No 9, lead clone of 4451H (HC T59Y; LC S30K, T97I) (antibody, V domains shown)
VH: B14 VH with G35N, T59Y
VL: B14 VL with A27K, S30K
B19: Antibody No 12, lead clone of 4451H (HC T59Y; LC S30K) (antibody, V domains shown)
VH: B14 VH with G35N, T59Y
VL: B14 VL with A27K, S30K, I97T
B20: Antibody No 4, lead clone of 4451H (HC N35G; LC K27A) (antibody, V domains shown)
VH: B14 VH
VL: B14 VL with I97T
B21: Antibody No 8, lead clone of 4451H (HC T59Y; LC K27A, T97I) (antibody, V domains shown)
VH: B14 VH with G35N, T59Y
VL: B14 VL
B22: Antibody No 2, lead clone of 4451H (HC N35G; LC S30K, T97I) (antibody, V domains shown)
VH: B14 VH
VL: B14 VL with A27K, S30K
B23: Antibody No 7, lead clone of 4451H (HC N35G; LC T97I) (antibody, V domains shown)
VH: B14 VH
VL: B14 VL with A27K

Biological target: T1, human CD24 on cells
Experiment: cell-based or functional assay

Row | Binder | EC50 of Phagocytosis assay, IgG1, Kappa; HEK293-CD24 [µg/mL] | EC50 of Phagocytosis assay, IgG1, Kappa; MCF-7 [µg/mL] | EC50 of Phagocytosis assay, IgG1, Kappa; NALM6 [µg/mL] | EC50 of Phagocytosis assay, IgG1, Kappa; OVCAR3 [µg/mL] | EC50 of Phagocytosis assay, IgG4, Kappa; HEK293-CD24 [µg/mL] | EC50 of Phagocytosis assay, IgG4, Kappa; MCF-7 [µg/mL] | EC50 of Phagocytosis assay, IgG4, Kappa; NALM6 [µg/mL] | EC50 of Phagocytosis assay, IgG4, Kappa; OVCAR3 [µg/mL]
1 | B1 | 0.05 | 0.28 | 0.19 | 0.1 |  |  |  | 
2 | B2 | 4.76 | 2.05 | 7.9 | 0.97 |  |  |  | 
3 | B3 | 5.15 | 2.08 | 8.62 | 1.63 |  |  |  | 
4 | B4 |  |  |  |  | 0.86 | 2.4 | 1.05 | 0.37
5 | B5 |  |  |  |  | 0.37 | 1.02 | 0.55 | 0.51
6 | B6 | 0.22 | 0.42 | 0.43 | 8.44 |  |  |  | 
7 | B7 | 7.46 | 0.84 | 2.48 | 0.73 |  |  |  | 
8 | B8 | 0.09 | 0.47 | 0.42 | 0.17 |  |  |  | 
9 | B9 |  |  |  |  | 0.09 | 2.25 | 6.01 | 5.74
10 | B10 | 0.75 | 0.4 | 2.01 | 0.23 |  |  |  | 
11 | B11 | 0.29 | 1.02 | 1.25 | 0.59 |  |  |  | 
12 | B12 |  |  |  |  | 0.46 | 24.7 | 6.58 | 1.62
13 | B13 | 0.4 | 0.74 | 0.7 | 8.48 |  |  |  | 

Biological target: T2, Human CD24
Experiment: SPR affinity ranking, 1:1 binding, analyte conc. 19.71 nM

Row | Binder | Kd [nM] | koff [s⁻¹] | kon [M⁻¹ s⁻¹]
14 | B14 | 10.5 | 0.0132 | 1.26e+06
15 | B15 | 14.1 | 0.0171 | 1.21e+06
16 | B16 | 8.7 | 0.0175 | 2.01e+06
17 | B17 | 7.89 | 0.0345 | 4.37e+06
18 | B18 | 11.4 | 0.06 | 5.27e+06
19 | B19 | 11.1 | 0.168 | 1.52e+07
20 | B20 | 8.97 | 0.0107 | 1.19e+06
21 | B21 | 15.8 | 0.0196 | 1.24e+06
22 | B22 | 8.78 | 0.0249 | 2.83e+06
23 | B23 | 16.9 | 0.0141 | 836000
